Measurements from patent publication US20230212285A1 (published 2023).
Where a chain is given by its changes, count along the chain named. Like-named read-outs stand apart in the source and are kept apart here.

Tests used:
human FcγRI, His6-tagged = target: T1, human FcγRI, His6-tagged (human, UniProt P12314 16-288); experiment: SPR, 1:1 kinetic
T1 construct: also called FcG RI
Experimental: (§1) Interaction affinities for IgGs were determined by surface plasmon resonance using a BIACORE® T200 instrument. For most analyses, His6-tagged FcγRI, FcγRIIa (167R and 167H variants), FcγRIIb, FcγRIIIa (176F and 176 V variants), and FcγRIIIb receptors (all Sino Biological) were captured on a CM5 sensor chip coated with an anti-HIS antibody by standard amine coupling. Receptor-specific formats of analyses were then applied, as below.
Regeneration with 2× injections glycine pH 1.5 and analysis using 1:1 fit.

[1] = target: T2, human FcγRIIa 167H variant, His6-tagged (human, UniProt P12318 34-218); experiment: SPR, steady state
T2 construct: also called FcG RIIa (167H)
T2 sequence (looked up): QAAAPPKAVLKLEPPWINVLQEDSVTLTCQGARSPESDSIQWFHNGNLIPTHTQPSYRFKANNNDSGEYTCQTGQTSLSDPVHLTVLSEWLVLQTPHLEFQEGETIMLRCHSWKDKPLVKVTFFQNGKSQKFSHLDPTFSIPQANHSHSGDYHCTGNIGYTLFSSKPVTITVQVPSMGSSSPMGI
Experimental: as §1

[2] = target: T3, human FcγRIIb, His6-tagged (human, UniProt P31994 43-217); experiment: SPR, steady state
T3 construct: also called FcG RIIb
T3 sequence (looked up): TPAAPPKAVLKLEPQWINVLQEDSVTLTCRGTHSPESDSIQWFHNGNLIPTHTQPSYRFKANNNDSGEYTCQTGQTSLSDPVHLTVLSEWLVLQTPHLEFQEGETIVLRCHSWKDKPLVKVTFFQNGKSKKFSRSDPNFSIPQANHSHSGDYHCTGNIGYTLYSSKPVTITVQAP
Experimental: as §1

[3] = target: T4, human FcγRIIIa 176F variant, His6-tagged (human, UniProt P08637 17-208); experiment: SPR, steady state
T4 construct: also called FcG RIIIa (176F)
T4 sequence (P08637 17-208 limits assumed, change not shown): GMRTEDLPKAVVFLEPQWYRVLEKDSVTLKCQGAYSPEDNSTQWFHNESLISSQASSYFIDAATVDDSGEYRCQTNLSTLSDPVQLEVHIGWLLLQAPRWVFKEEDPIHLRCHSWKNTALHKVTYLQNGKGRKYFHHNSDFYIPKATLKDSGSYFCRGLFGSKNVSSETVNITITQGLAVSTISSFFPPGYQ
Experimental: as §1

[4] = target: T5, human FcγRIIIa 176V variant, His6-tagged (human, UniProt P08637 17-208); experiment: SPR, steady state
T5 construct: also called FcG RIIIa (176V)
T5 sequence (P08637 other isoform, or with tags, fused parts or gaps mutant limits assumed): as the sequence (P08637 17-208 limits assumed, change not shown) above, with F160V counted along it
Experimental: as §1

[5] = target: T6, human FcγRIIIb, His6-tagged (human, UniProt O75015 17-200); experiment: SPR, steady state
T6 construct: also called FcG RIIIb
T6 sequence (O75015 17-200 limits assumed): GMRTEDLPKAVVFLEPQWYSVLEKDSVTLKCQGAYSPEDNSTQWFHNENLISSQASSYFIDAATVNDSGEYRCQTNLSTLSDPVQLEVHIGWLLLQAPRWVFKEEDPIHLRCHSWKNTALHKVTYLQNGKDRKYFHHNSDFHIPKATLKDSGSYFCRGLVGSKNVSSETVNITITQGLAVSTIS
Experimental: as §1

[6] = target: T7, human FcγRIIa 167R variant, His6-tagged (human, UniProt P12318 34-218); experiment: SPR, steady state
T7 construct: also called FcG RIIa (167R)
T7 sequence (looked up): T2 sequence (looked up) with H134R
Experimental: as §1

human FcRn = target: T8, human FcRn (human, UniProt P55899 24-297, limits assumed); experiment: SPR, steady state, pH 6
T8 construct: also called hFcRn
T8 sequence (P55899 24-297 limits assumed, form in doubt): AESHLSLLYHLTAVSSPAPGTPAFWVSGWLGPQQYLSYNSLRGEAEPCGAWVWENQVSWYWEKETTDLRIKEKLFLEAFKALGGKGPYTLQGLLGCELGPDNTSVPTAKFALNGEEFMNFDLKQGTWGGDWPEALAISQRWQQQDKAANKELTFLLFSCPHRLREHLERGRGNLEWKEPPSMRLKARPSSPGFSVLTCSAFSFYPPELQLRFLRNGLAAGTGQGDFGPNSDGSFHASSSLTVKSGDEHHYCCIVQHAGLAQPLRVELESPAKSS
Experimental: The interactions between monomeric IgG and FcRn are relatively low affinity and pH-sensitive interactions, so ‘steady state’ affinity analyses were performed under the following conditions: A CM5 chip was directly coupled with hFcRn in sodium acetate pH 5.5 using standard amine chemistry. Running buffer was PBS 0.05% P20+150 mM NaCl (pH 6.0 or pH 7.4), flow rate 30 μl/min, 5 point three-fold dilutions of purified antibodies from 3000 nM to 37.0 nM applied with an association time of 18s, dissociation time 100 s.

[7] = target: T9, cynomolgus monkey C-KIT-Fc protein (cynomolgus monkey); experiment: direct ELISA, IgG at 1 µg/ml
T9 construct: also called cyno C-KIT-Fc; cyno C-KIT

[8] = target: T9, cynomolgus monkey C-KIT-Fc protein; experiment: HTRF competition vs terbium-labelled h37M IgG1
[9] = target: T9, cynomolgus monkey C-KIT-Fc protein; experiment: HTRF competition vs terbium-labelled h37M IgG1; remark: listed apart in the source

T1 sequence (P12314 16-288 limits assumed): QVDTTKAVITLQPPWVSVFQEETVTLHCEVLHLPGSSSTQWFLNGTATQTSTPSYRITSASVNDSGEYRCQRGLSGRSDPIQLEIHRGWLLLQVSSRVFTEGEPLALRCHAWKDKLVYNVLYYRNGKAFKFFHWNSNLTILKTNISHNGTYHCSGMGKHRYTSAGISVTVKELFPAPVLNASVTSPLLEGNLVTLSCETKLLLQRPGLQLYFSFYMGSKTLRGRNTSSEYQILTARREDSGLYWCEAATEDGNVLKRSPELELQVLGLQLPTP

B1: h37M IgG1 (antibody)
heavy: not shown
VL: DIVMTQSPSSLSASVGDRVTITCKASQNVRTNVAWYQQKPGKAPKALIYSASYRYSGVPDRFTGSGSGTDFTLTISSLQPEDFADYFCQQYNSYPRTFGGGTKVEIK
notes: Humanized 37M, human IgG1; Terbium-labelled as tracer in HTRF; also called C-KIT-h37M; IgG1-h37M; copies: 2 + 2
- Kd (human FcγRI, His6-tagged): 1.06 nM
- Kd [1]: 512 nM
- Kd [2]: 1440 nM
- Kd [3]: 82 nM
- Kd [4]: 41.1 nM
- Kd [5]: 249 nM
- Kd [6]: 447 nM
- Kd (human FcRn): 1240 nM
- OD450 nm [7]: > 2 OD450 nm
- IC50 [8]: 0.035 µg/mL
- IC50 [9]: 0.036 µg/mL
